Assay results published in patent US20250026849A1 (ARCELLX, published 2025).
Substitutions are numbered along the chain they refer to. Values belong to the binder of their own block, whether it stands above or below them.

Columns and labels:
CD123 = molecular target: T1, CD123 (Homo sapiens (Human), UniProt P26951 19-305, limits assumed); test: ELISA; parameters: unit not given here
T1 construct: The CD123 construct used in the ELISA is not described; also called CD123-Signal
T1 sequence: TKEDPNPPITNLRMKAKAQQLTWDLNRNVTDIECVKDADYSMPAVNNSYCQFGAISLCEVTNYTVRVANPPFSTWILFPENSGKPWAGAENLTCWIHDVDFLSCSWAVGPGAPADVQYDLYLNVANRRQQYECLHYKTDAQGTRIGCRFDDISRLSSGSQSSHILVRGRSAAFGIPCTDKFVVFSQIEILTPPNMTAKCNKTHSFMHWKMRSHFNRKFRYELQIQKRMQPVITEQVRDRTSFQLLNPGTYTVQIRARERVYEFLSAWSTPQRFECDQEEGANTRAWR

BCMA = molecular target: T2, BCMA (Homo sapiens (Human), UniProt Q02223 1-54, limits assumed); test: ELISA, format not described; parameters: unit not given here
T2 sequence: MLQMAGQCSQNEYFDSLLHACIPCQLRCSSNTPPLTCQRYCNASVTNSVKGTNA

B1: D domain of SEQ ID NO: 656 (designed binder)
chain: MGSWFEFETRLEAIDLRLWALGGSEAELATFEDVIAFFEDWLQFYKGKGNPEVEALKMEAWAIGEELHAYRHN
ELISA_avg (CD123): 6.6

B2: D domain of SEQ ID NO: 655 (designed binder)
chain: MGSWLEFETRLHAIDERLWALGGSEAELAEFEEHIAWFEEDLQFYKGKGNPEVEALDFEADAIGWELWAYRHN
ELISA_avg (CD123): 4.6

B3: D domain of SEQ ID NO: 648 (designed binder)
chain: MGSWEEFHMRLIAIDERLWALGGSEAELAGFEESIAYFESQLQDYKGKGNPEVEALDYEAHAIWRELYAYRHN
ELISA_avg (CD123): 3.9

B4: D domain of SEQ ID NO: 645 (designed binder)
chain: MGSWYEFFDRLDAIDERLWALGGSEAELAWFEAEIAEFEMELQGYKGKGNPEVEALDVEAHAIEMELFAYRHN
ELISA_avg (CD123): 3.7

B5: D domain of SEQ ID NO: 641 (designed binder)
chain: MGSWYEFVYRLRAIDERLDALGGSEAELAMFEFEIAFFEDQLQRYKGKGNPEVEALVDEAQAIDFELFAYRHN
ELISA_avg (CD123): 4.5

B6: D domain of SEQ ID NO: 650 (designed binder)
chain: MGSWDEFAMRLEAIQARLFALGGSEAELAIFEDEIAFFETMLQDYKGKGNPEVEALEYEAAAIEAELGAYRHN
ELISA_avg (CD123): 3.7

B7: D domain of SEQ ID NO: 642 (designed binder)
chain: MGSWWEFEDRLYAIDDRLWALGGSEAELAQFEREIAQFEIWLQEYKGKGNPEVEALDDEATAINSELFAYRHN
ELISA_avg (CD123): 5.5

B8: D domain of SEQ ID NO: 659 (designed binder)
chain: MGSWYEFENRLFAIEERLWALGGSEAELAWFEYEIANFEWGLQSYKGKGNPEVEALDNEAEAIDIELAAYRHN
ELISA_avg (CD123): 3.3

B9: D domain of SEQ ID NO: 657 (designed binder)
chain: MGSWHEFWQRLEAIEGRLWALGGSEAELADFESLIADFEEQLQEYKGKGNPEVEALMAEAEAIDNELRAYRHN
ELISA_avg (CD123): 7

B10: D domain of SEQ ID NO: 646 (designed binder)
chain: MGSWYEFMGRLEAIDERLQALGGSEAELAWFEHEIAEFEWSLQWYKGKGNPEVEALRFEAGAIPWELWAYRHN
ELISA_avg (CD123): 3.5

B11: D domain of SEQ ID NO: 653 (designed binder)
chain: MGSWNEFVIRLFAIDDRLYALGGSEAELAWFEDEIATFEYELQRYKGKGNPEVEALEYEAEAIVSELFAYRHN
ELISA_avg (CD123): 3.5

B12: D domain of SEQ ID NO: 651 (designed binder)
chain: MGSWWEFNARLDAIEDRLMALGGSEAELAYFEDIIASFENILQQYKGKGNPEVEALWYEAYAIEKELNAYRHN
ELISA_avg (CD123): 3.4

B13: D-domain SEQ ID NO: 79 (designed binder)
chain: MGSWVEFKARLEAISSRLTALGGSEAELAAFEKEIAAFESELQAYKGKGNPEVEELRYSAALIRVYLQAYRHN
ELISA_avg (BCMA): 8.71

B16: D-domain SEQ ID NO: 80 (designed binder)
chain: B13 chain with V5S, K8Y, A9T, S15N, S16N, T19H, S59T, V65I
ELISA_avg (BCMA): 3.66

B26: D-domain SEQ ID NO: 72 (designed binder)
chain: B13 chain with K8Q, A9D, S15T, S16D, T19Y, L62M, Y66I
ELISA_avg (BCMA): 8.88

B33: D-domain SEQ ID NO: 73 (designed binder)
chain: MGSWVEFQERLMAISDRLYALGGSEAELAAFEKEIAAFESELQAYKGKGNPEVEELRWQAAMIRYTLQAYRHN
ELISA_avg (BCMA): 6.7

B39: D-domain SEQ ID NO: 78 (designed binder)
chain: B13 chain with K8R, A9S, S16N, T19R, Y58T, S59T
ELISA_avg (BCMA): 3.04

B40: D domain of SEQ ID NO: 649 (designed binder)
chain: MGSWWEFKYRLDAICFRLAALGGSEAELASFEDEIAYFEEDLQGYKGKGNPEVEALDYEALAIWDELAAYRHN
ELISA_avg (CD123): 3.1

B41: D domain of SEQ ID NO: 644 (designed binder)
chain: MGSWEEFEWRLDAIDERLWALGGSEAELATFEYEIAIFENELQQYKGKGNPEVEALDSEAYAIERELGAYRHN
ELISA_avg (CD123): 4.3

B42: D domain of SEQ ID NO: 643 (designed binder)
chain: MGSWDEFEFRLEAIDSRLWALGGSEAELAVFEYEIAQFEFMLQEYKGKGNPEVEALGMEAWAIENELFAYRHN
ELISA_avg (CD123): 3.6

B43: D domain of SEQ ID NO: 652 (designed binder)
chain: MGSWIEFWNRLEAIEERLYALGGSEAELAYFEDEIAEFEIYLQQYKGKGNPEVEALKHEAEAINKELMAYRHN
ELISA_avg (CD123): 5.2

B44: D domain of SEQ ID NO: 639 (designed binder)
chain: MGSWWEFEIRLDAIDERLWALGGSEAELAWFEQSIAFFENDLQVYKGKGNPEVEALRWEANAIIEELFAYRHN
ELISA_avg (CD123): 3.2

B45: D domain of SEQ ID NO: 654 (designed binder)
chain: MGSWYEFLARLYAIDERLWALGGSEAELATFEHWIADFEEQLQSYKGKGNPEVEALTDEAVAIGEELSAYRHN
ELISA_avg (CD123): 4.5

B46: D domain of SEQ ID NO: 647 (designed binder)
chain: MGSWVEFSNRLDAIWERLQALGGSEAELAYFEWEIAEFEWELQSYKGKGNPEVEALNAEADAIEWELEAYRHN
ELISA_avg (CD123): 5.1

B47: D domain of SEQ ID NO: 640 (designed binder)
chain: MGSWYEFEWRLDAIDRRLWALGGSEAELADFEEEIADFEWMLQNYKGKGNPEVEALVDEASAIQTELWAYRHN
ELISA_avg (CD123): 10

B48: D domain of SEQ ID NO: 658 (designed binder)
chain: MGSWYEFEQRLEAIEWRLGALGGSEAELATFEEDIADFEEWLQEYKGKGNPEVEALQYEAYAIAEELHAYRHN
ELISA_avg (CD123): 4.4

More lines, now with the values ahead:

ELISA_avg (BCMA): 10.4
B14: D-domain SEQ ID NO: 96 (designed binder)
chain: B13 chain with V5W, K8E, A9D, E12S, S15M, S16E, T19H, S59R, L62I

ELISA_avg (BCMA): 11.3
B15: D-domain SEQ ID NO: 103 (designed binder)
chain: B13 chain with V5E, K8S, A9E, S16I, T19R, Y58V, L62I, Y66W

ELISA_avg (BCMA): 6.37
B17: D-domain SEQ ID NO: 104 (designed binder)
chain: B33 chain with V5S, Q8S, E9D, M12H, Y19Q, W58I, M62I, Y65V, T66W

ELISA_avg (BCMA): 4.31
B18: D-domain SEQ ID NO: 81 (designed binder)
chain: B13 chain with V5A, K8Y, A9H, E12D, T19R, S59T, V65I

ELISA_avg (BCMA): 8.21
B19: D-domain SEQ ID NO: 95 (designed binder)
chain: MGSWSEFYDRLKAIADRLHALGGSEAELAAFEKEIAAFESELQAYKGKGNPEVEELRTEAAIIRVYLQAYRHN

ELISA_avg (BCMA): 7.63
B20: D-domain SEQ ID NO: 86 (designed binder)
chain: B13 chain with K8E, A9Y, E12V, S15F, S16D, T19Q, S59Q, Y66M

ELISA_avg (BCMA): 6.7
B21: D-domain SEQ ID NO: 99 (designed binder)
chain: B19 chain with S5T, Y8R, K12G, A15Y, D16H, H19D, T58Y, E59Q

ELISA_avg (BCMA): 7.99
B22: D-domain SEQ ID NO: 82 (designed binder)
chain: B13 chain with V5T, K8A, A9S, E12V, S15R, S16Q, T19Q, L62I, Y66M

ELISA_avg (BCMA): 6.42
B23: D-domain SEQ ID NO: 92 (designed binder)
chain: B13 chain with V5T, K8A, A9N, S15N, S16A, T19H, Y58F

ELISA_avg (BCMA): 7.36
B24: D-domain SEQ ID NO: 84 (designed binder)
chain: B13 chain with K8H, A9N, E12S, S16D, T19G, Y66M

ELISA_avg (BCMA): 7.12
B25: D-domain SEQ ID NO: 88 (designed binder)
chain: B13 chain with V5Y, K8S, A9M, E12S, S15W, S16E, T19H, S59Q, V65F

ELISA_avg (BCMA): 8.85
B27: D-domain SEQ ID NO: 93 (designed binder)
chain: B13 chain with V5E, K8D, A9R, E12Y, S15A, S16R, T19E, S59Q, Y66W

ELISA_avg (BCMA): 4.09
B28: D-domain SEQ ID NO: 85 (designed binder)
chain: B13 chain with V5N, K8E, A9D, E12S, S16A, T19S, Y66M

ELISA_avg (BCMA): 3.83
B29: D-domain SEQ ID NO: 87 (designed binder)
chain: B13 chain with K8Q, A9G, E12G, S15H, S16E, T19Q, Y66F

ELISA_avg (BCMA): 6.34
B30: D-domain SEQ ID NO: 91 (designed binder)
chain: B13 chain with V5T, K8E, A9H, S15A, S16G, T19N, V65F, Y66W

ELISA_avg (BCMA): 7.72
B31: D-domain SEQ ID NO: 83 (designed binder)
chain: B13 chain with V5S, K8D, A9Q, E12A, S15Y, S16Q, T19N, Y66M

ELISA_avg (BCMA): 16.3
B32: D-domain SEQ ID NO: 97 (designed binder)
chain: B19 chain with S5V, Y8E, D9E, K12A, D16T, T58W, E59R

ELISA_avg (BCMA): 8
B34: D-domain SEQ ID NO: 94 (designed binder)
chain: B13 chain with V5I, K8H, A9Q, S15V, S16T, T19E, S59Q, Y66F

ELISA_avg (BCMA): 5.64
B35: D-domain SEQ ID NO: 101 (designed binder)
chain: B13 chain with K8Y, A9D, S15R, S16Y, T19S, S59I, L62V, V65Y, Y66R

ELISA_avg (BCMA): 4.15
B36: D-domain SEQ ID NO: 89 (designed binder)
chain: B13 chain with V5T, K8S, A9Q, E12G, S16E, T19Y, V65F, Y66M

ELISA_avg (BCMA): 7.8
B37: D-domain SEQ ID NO: 100 (designed binder)
chain: B13 chain with K8Y, A9H, S15R, S16Y, T19S, S59V, L62V, V65Y, Y66R

ELISA_avg (BCMA): 5.79
B38: D-domain SEQ ID NO: 90 (designed binder)
chain: B13 chain with V5T, K8H, A9D, S15T, S16H, T19N, I63L, Y66F
